The target of test [1] is Grappling Hook Protein A (GhpA), assembled as the grappling hook (Aureispira sp. CCB-QB1). As to the kind of experiment: cryo-electron tomography with subtomogram averaging.
For test [2] the target is unchanged. The test is described as follows: cryo-EM structure.

In paper doi:10.1101/2024.01.29.577165 one finds stoichiometry N data, which are given here for 1 substance.

For “Grappling Hook Protein A (GhpA), assembled as the grappling hook (natural protein)”, the stoichiometry N in test [1] and in test [2] was 7 in each case.
